Source: patent US20250011397A1

Legend:
[1] = molecular target: SARS-CoV-2 Spike on HIV-based pseudotyped virus (Spike plasmid BEI NR52310) (SARS-CoV-2) (UniProt P0DTC2); test: cell-based or functional assay
mouse FcRn (mouse) [2] = molecular target: mouse FcRn (mouse) (UniProt Q61559)
mouse FcγRI (mouse) = mouse FcγRI (mouse) (UniProt P26151)
mouse FcRn (mouse) [3] = molecular target: mouse FcRn (mouse) (UniProt Q61559); test: pH 5.6

Chain of mouse FcRn (mouse) (Q61559 22-297 limits assumed, form in doubt, chain 1 of 2): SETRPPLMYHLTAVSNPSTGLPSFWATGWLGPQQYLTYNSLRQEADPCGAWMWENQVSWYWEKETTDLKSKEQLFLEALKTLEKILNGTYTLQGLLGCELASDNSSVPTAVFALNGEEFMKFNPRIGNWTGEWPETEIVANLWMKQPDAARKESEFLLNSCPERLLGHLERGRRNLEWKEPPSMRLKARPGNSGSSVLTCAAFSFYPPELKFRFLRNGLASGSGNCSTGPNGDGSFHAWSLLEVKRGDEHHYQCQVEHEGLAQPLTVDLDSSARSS
Chain of mouse FcRn (mouse) (chain, as listed by the source limits assumed, form in doubt, chain 2 of 2): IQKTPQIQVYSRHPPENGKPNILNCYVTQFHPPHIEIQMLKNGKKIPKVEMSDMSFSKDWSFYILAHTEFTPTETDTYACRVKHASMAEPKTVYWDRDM
Chain of mouse FcγRI (mouse) (P26151 25-297 limits assumed): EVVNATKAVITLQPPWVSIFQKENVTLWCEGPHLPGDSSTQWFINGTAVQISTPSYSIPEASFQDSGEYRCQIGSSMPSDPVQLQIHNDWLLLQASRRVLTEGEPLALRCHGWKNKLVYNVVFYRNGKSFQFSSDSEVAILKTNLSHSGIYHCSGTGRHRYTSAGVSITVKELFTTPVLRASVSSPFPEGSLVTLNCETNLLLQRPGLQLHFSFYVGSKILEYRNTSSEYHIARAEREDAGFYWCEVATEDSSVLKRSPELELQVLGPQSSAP

REGN10933 (recombinant mAb, reference IgG) (antibody)
IC50 (PsV neutralization) [1]: 0.0044 µg/mL

REGN10987 (recombinant mAb, reference IgG) (antibody)
IC50 (PsV neutralization) [1]: 0.03 µg/mL

mouse surrogate Multabody (HD37, mouse IgG2a Fc, mouse apoferritin), WT Fc
kon (mouse FcRn (mouse) [2]): 682000 M⁻¹ s⁻¹ | Kd (mouse FcγRI (mouse)): < 1 pM | koff (mouse FcγRI (mouse)): < 1e-07 s⁻¹ | kon (mouse FcγRI (mouse)): 939000 M⁻¹ s⁻¹ | Kd (mouse FcRn (mouse) [3]): < 1 pM | koff (mouse FcRn (mouse) [3]): < 1e-07 s⁻¹

mouse surrogate Multabody with LALAP Fc
kon (mouse FcRn (mouse) [2]): 2.4e+06 M⁻¹ s⁻¹ | Kd (mouse FcRn (mouse) [3]): < 1 pM | koff (mouse FcRn (mouse) [3]): < 1e-07 s⁻¹
